# Experimental data from the supplement of paper PMC10126150.
# ± gives the standard deviation of the averaged measurements.
# Test system: ATP
# Test: switch fluorescence ratio, 500 uM ATP over buffer (Cy3 cluster intensity, sum of 5 cycles each) (fold (ratio)); higher = stronger signal-on switching upon ATP binding; sequences stand for … in TCGTCGGCAGCGTCAGATGTGTATAAGAGACAGTTTTTTTTTTTTTTTTTTTTTTTTT…TC
# Conditions: aptamer strand: ATP DNA aptamer (quencher-CACCTGGGGGAGTATTGCGGAGGAAGG + anchor), 100 nM annealed; ATP concentration: 500 uM
# In short: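 Cy3-labelled switching-strand clusters on a modified Illumina MiSeq flow-cell were annealed to 100 nM quencher-labelled ATP aptamer, imaged in selection buffer, then imaged after 15 min with 500 uM ATP at 22 °C. Five buffer/ATP cycles ran, with NaOH stripping and re-annealing between them. The fluorescence ratio is summed target-cycle over summed buffer-cycle Cy3 intensity per cluster, averaged per switch-domain sequence. Clusters outside 100-1000 RFU were excluded.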
# 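Note: ATP exposure 15 min at 22 °C before imaging.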
row,Sequence,switch fluorescence ratio
1,AACTTCCGCA,1.29 ± 0.038
2,AACTTGAGAA,1.01 ± 0.012
3,AACTTGATAT,0.9835 ± 0.0019
4,AACTTGGACC,1.05 ± 0.035
5,AACTTTAGTA,1 ± 0.016
6,AACTTTTATT,1.01 ± 0.015
7,AACTTTTCTA,0.976 ± 0.017
8,AACTTTTTTT,0.98236 ± 0.00064
9,AAGAAAAATT,0.9725 ± 0.0048
10,AAGAAACGGG,1.025 ± 0.008
11,AAGAAAGACT,1.02 ± 0.013
12,AAGAAATTAA,1.01 ± 0.045
13,AAGAAATTTT,0.984 ± 0.012
14,AAGAAGAGGA,1 ± 0.011
15,AAGAAGATTT,1 ± 0.012
16,AAGAATGACT,0.977 ± 0.014
17,AAGAATTGTG,0.992 ± 0.032
18,AAGAATTTTG,0.999 ± 0.027
19,AAGACACAGA,1.06 ± 0.035
20,AAGACCGGCA,1.01 ± 0.038
21,AAGAGAACGG,1.04 ± 0.091
22,AAGAGAAGCC,1.02 ± 0.078
23,AAGAGAGGGA,0.981 ± 0.041
24,AAGAGAGGGG,1.02 ± 0.029
25,AAGAGATATG,1.02 ± 0.059

row,Sequence,switch fluorescence ratio
1,AAGAGATTTT,0.986 ± 0.012
2,AAGAGGATG,0.977 ± 0.023
3,AAGAGGCATG,0.971 ± 0.07
4,AAGAGGCCGG,0.986 ± 0.031
5,AAGAGGGGTA,0.999 ± 0.018
6,AAGAGGGTGG,0.997 ± 0.02
7,AAGAGGGTTT,1.01 ± 0.05
8,AAGAGGTCAG,1.033 ± 0.0016
9,AAGAGTAGGA,0.989 ± 0.0099
10,AAGAGTATAA,0.985 ± 0.04
11,AAGAGTCTTT,1.01 ± 0.017
12,AAGAGTGGGA,1.03 ± 0.011
13,AAGAGTGGTG,0.988 ± 0.015
14,AAGATCACTG,1.06 ± 0.068
15,AAGATCGGGG,0.972 ± 0.049
16,AAGATGAGGT,1.01 ± 0.021
17,AAGATGCTTC,1 ± 0.011
18,AAGATGGGGT,0.991 ± 0.017
19,AAGATGTAGT,0.994 ± 0.017
20,AAGATGTATT,0.9561 ± 0.0015
21,AAGATTAGGT,1 ± 0.059
22,AAGATTTCGT,1 ± 0.044
23,AAGCACCGGG,1.08 ± 0.085
24,AAGCACTAGG,1.1916 ± 0.0011
25,AAGCAGGGGG,0.995 ± 0.018

row,Sequence,switch fluorescence ratio
1,AAGCAGGTGG,1.052 ± 0.0096
2,AAGCATCTAC,2.08 ± 0.32
3,AAGCATTTGT,0.9976 ± 0.0089
4,AAGCCAAATG,0.994 ± 0.029
5,AAGCCAAGAG,1.05 ± 0.027
6,AAGCCAGCTC,1.02 ± 0.037
7,AAGCCGAGGG,1.017 ± 0.0022
8,AAGCCGATCT,0.974 ± 0.046
9,AAGCCGGGAT,1.02 ± 0.016
10,AAGCCTGAGG,1.015 ± 0.0084
11,AAGCCTTTTT,1.01 ± 0.019
12,AAGCGAGCCG,1.02 ± 0.091
13,AAGCGAGGTT,0.991 ± 0.021
14,AAGCGCATTT,1.05 ± 0.029
15,AAGCGGGTCG,1.03 ± 0.049
16,AAGCGGTTCG,0.98939 ± 0.0009
17,AAGCGGTTTT,1 ± 0.019
18,AAGCGTGAGG,1.04 ± 0.047
19,AAGCGTGTGG,1 ± 0.036
20,AAGCTAATGT,1.061 ± 0.0089
21,AAGCTACTGG,1.0513 ± 0.00024
22,AAGCTCTTGA,1 ± 0.04
23,AAGCTGGTGT,1.014 ± 0.0075
24,AAGCTGTGCA,0.99 ± 0.038
25,AAGCTGTTAT,1.16 ± 0.29

row,Sequence,switch fluorescence ratio
1,AAGCTTCTGT,1.023 ± 0.0057
2,AAGCTTTCGG,1.03 ± 0.016
3,AAGGAAAGAT,0.975 ± 0.04
4,AAGGAAATGG,1.01 ± 0.035
5,AAGGACAAGA,1.02 ± 0.00092
6,AAGGACATTA,1.042 ± 0.0014
7,AAGGACCGGC,0.991 ± 0.057
8,AAGGAGAGCT,1.01 ± 0.054
9,AAGGAGAGGG,1 ± 0.096
10,AAGGAGGATG,0.995 ± 0.042
11,AAGGAGGCAC,0.985 ± 0.021
12,AAGGAGGCAG,1.03 ± 0.045
13,AAGGAGGGCA,0.984 ± 0.016
14,AAGGATAATG,0.976 ± 0.019
15,AAGGATATCT,0.988 ± 0.022
16,AAGGATGTGG,0.977 ± 0.021
17,AAGGATTGCG,0.96 ± 0.047
18,AAGGATTTTT,0.998 ± 0.03
19,AAGGCAGGGG,1.05 ± 0.044
20,AAGGCAGGTT,1.021 ± 0.0068
21,AAGGCCAGCG,0.953 ± 0.051
22,AAGGCCAGGT,1.17 ± 0.083
23,AAGGCCGCGG,0.997 ± 0.05
24,AAGGCCGGAA,1.04 ± 0.025
25,AAGGCGAGCT,0.992 ± 0.01
